Holding throughout (assay): native gel or EMSA + SEC; native PAGE without SDS (7.5% separating gel, running buffer 0.05 M Tris, 0.038 M glycine, pH 8.3) against the standards TA-3HMU and TA-3FCR (dimers), catalase and TA-3N5M (tetramers); SEC on HiPrep 16/60 Sephacryl S-100 HR in 50 mM sodium phosphate pH 8.0; subunit size by SDS-PAGE
On the technique in general: A gel shift assay detects complexes by their altered migration in electrophoresis.

Data set [1] deals with TA-5, putative transaminase from Halomonas elongata (Halomonas elongata).
The target in data set [2] is TA-9, putative transaminase from Burkholderia cepacia (Burkholderia cepacia).
In data set [3] the target is TA-10, amine transaminase from Burkholderia multivorans (Burkholderia multivorans).
Data set [4] deals with the molecule itself.

For the molecule “TA-5, putative transaminase from Halomonas elongata (enzyme)”, the stoichiometry N in data set [1] was found to be 4.

For the molecule “TA-9, putative transaminase from Burkholderia cepacia (enzyme)”, the stoichiometry N in data set [2] is 4.

On to “TA-10, amine transaminase from Burkholderia multivorans (enzyme)”, for which, in data set [3], the stoichiometry N amounted to 4.

B1: TA-1, taurine transaminase from Bilophila wadsworthia (enzyme, UniProt Q9APM5 1-456, looked up)
chain: MTYDKAELVALDKKYVWHHLTQHKNFEPAIYVKGEGMRITDIDGKTYLDAVSGGVWTVNVGYGRKEIVDAVAKQMMEMCYFANGIGNVPTIKFSEKLISKMPGMSRVYLSNSGSEANEKAFKIVRQIGQLKHGGKKTGILYRARDYHGTTIGTLSACGQFERKVQYGPFAPGFYEFPDCDVYRSKFGDCADLGVKMAKQLEEVILTVGPDELGAVIVEPMTAGGGILVPPAGYYETIREICDKYELLLIIDEVVCGLGRTGKWFGYQHFNVQPDIVTMAKGVASGYAPISCTVTTEKVFQDFVNDPADTDAYFRDISTFGGCTSGPAAALANIEIIERENLLENCTKMGDRLLEGLKGLMAKHPIIGDVRGKGLFAGIEIVKDRATKEPIAEAVANAMVGAAKQAGVLIGKTSRSFREFNNTLTLCPALIATEADIDEIVAGIDKAFTTVEQKFGL
notes: TA-1, taurine-pyruvate transaminase, Bilophila wadsworthia; codon-optimized gene subcloned with NdeI and BamHI into pET22b or pET28b; Purified and stored with PLP as cofactor; also called taurine-pyruvate transaminase; source: E. coli BL21, purified (Ni-NTA, desalting)
On to B1, for which the “stoichiometry N” value in data set [4] was determined as 4.

In general, stoichiometry N refers to a count of units in the complex or per binding partner.

Values taken from publication PMC9418295, “Characterization of proteins from the 3N5M family reveals an operationally stable amine transaminase” (Applied Microbiology and Biotechnology, 2022).
